Measured values from US20040038299A1 (Pfizer, published 2004).

Molecular target: T1, N-terminal FLAG-tagged full length LTβR (UniProt P36941 31-435)
T1 construct: whole, on cells; Overexpressed in HEK293 cells, immunoprecipitated from lysate with M2 beads; also called Flag-tagged LTβR; pFlag-CMV2-LTβR; not shown: N-terminal FLAG tag from pFLAG-CMV2
Test: co-immunoprecipitation in transfected HEK293 cells, Western blot
Description: For immunoprecipitation, 1×10⁸ U937 cells were treated with FLAG-LIGHT at 20 ng/ml for different time or left untreated. Cells were then harvested and lysed in 4 ml of lysis buffer (see above). Cell debris was removed by centrifugation at 14,000+ g for 10 min and resulting lysate was pre-cleared with Gamma Binding beads (Pharmacia Biotech) for 1 hour at 4° C. Then 20 µl of M2 beads were added to cell lysate and incubated at 4° C. for 3 hours. After binding, beads were washed five times with lysis buffer. Immune complexes bound to the beads were eluted with sample buffer, resolve on 4-12% SDS-PAGE gels, transferred to PVDF membrane and probed with TRAF2, TRAF3 or cIAP1 antibody. Signals were detected with HRP-conjugated secondary antibody and ECL detection kits (Amersham Pharmacia Biotech). […] The presence of Smac, LTβR, TRAF2 and cIAP1 in the immune complex were then analyzed by Western blots.
Although two peptides from Smac in the LIGHT-LTβR complex were detected by mass spectrometry, an endogenous association was not detected using Smac antibodies (Alexis Biochemicals or Cell Signaling Technology). […] Smac was expressed as a C-terminal HA-tagged fusion protein and appeared as a doublet of 28 kDa and 23 kDa on the Western blot. […]

T1 sequence (P36941 31-435): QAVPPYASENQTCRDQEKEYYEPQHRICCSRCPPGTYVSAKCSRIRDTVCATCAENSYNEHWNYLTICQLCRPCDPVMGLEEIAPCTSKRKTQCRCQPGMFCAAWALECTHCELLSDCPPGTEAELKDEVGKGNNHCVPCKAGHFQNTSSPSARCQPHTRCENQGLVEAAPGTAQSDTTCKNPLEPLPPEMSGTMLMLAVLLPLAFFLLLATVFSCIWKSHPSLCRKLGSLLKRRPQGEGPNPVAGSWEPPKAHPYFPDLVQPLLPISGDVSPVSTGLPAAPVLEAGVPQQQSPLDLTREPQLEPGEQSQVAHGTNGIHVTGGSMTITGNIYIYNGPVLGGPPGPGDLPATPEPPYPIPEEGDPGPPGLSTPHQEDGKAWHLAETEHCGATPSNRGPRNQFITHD

B1: Δ76 deletion mutant of Smac with a C-terminal HA-tag (other)
chain: RAVSLVTDSTSTFLSQTTYALIEAITEYTKAVYTLTSLYRQYTSLLGKMNSEEEDEVWQVIIGARAEMTSKHQEYLKLETTWMTAVGLSEMAAEAAYQTGADQASITARNHIQLVKLQVEEVHQLSRKAETKLAEAQIEELRQKTQEEGEERAESEQEAYLRED
notes: also called ?76Smac; ?76 Smac; not shown: C-terminal HA tag
binding result: no binding
